The target of assay [1] is T1, human Protein S (human, UniProt P07225 42-676).
T1 construct: also called ProS; ProS1
T1 sequence: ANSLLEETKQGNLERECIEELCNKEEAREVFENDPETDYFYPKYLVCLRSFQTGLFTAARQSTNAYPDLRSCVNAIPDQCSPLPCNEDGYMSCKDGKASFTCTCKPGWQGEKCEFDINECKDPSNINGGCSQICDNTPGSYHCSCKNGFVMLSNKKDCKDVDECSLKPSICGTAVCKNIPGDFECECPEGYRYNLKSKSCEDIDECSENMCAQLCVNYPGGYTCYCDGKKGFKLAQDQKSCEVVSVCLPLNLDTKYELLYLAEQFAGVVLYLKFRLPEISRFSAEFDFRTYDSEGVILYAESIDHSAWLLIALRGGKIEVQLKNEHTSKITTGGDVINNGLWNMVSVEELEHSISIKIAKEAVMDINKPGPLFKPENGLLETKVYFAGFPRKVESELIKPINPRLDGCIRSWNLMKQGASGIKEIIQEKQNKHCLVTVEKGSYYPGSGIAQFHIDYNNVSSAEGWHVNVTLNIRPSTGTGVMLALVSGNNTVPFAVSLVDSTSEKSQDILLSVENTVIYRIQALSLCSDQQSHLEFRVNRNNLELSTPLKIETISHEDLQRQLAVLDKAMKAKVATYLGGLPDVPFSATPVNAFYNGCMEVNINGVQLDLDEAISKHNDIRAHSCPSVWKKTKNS
In words: BLI, Octet; antibody on anti-human Fc capture probes, Protein S 7.81-500 nM, 4 mM calcium chloride. The protocol:
(§1) Binding affinities of the Protein S antibodies provided herein were also further characterized using the Octet System (Sartorius). The binding of each antibody to both human and cynomolgus monkey (“cyno”) Protein S was determined. The human Fc antibodies were immobilized onto anti-human Fc capture probes by placing the probes into 10 µg/ml antibody solution in 10 mg/ml bovine serum albumin, 20 mM Tris pH 7.0, 150 mM NaCl, and 4 mM calcium chloride. […] Next, the probes were placed into buffer and the dissociation rates were measured.
On the technique in general: Biolayer interferometry detects binding as a change in optical thickness at a sensor tip.

The target of assay [2] is T2, cynomolgus monkey Protein S (cynomolgus monkey).
T2 construct: also called cyno Protein S
The description is as above. The protocol: as §1

The target in assay [3] is T1, human Protein S. As to the kind of experiment: SPR, Biacore X100; antibody captured on anti-human IgG (Fc), purified Protein S 2-128 nM as analyte, HBS-EP + 5 mM CaCl2, 1:1 model. The protocol:
Binding interaction analysis was obtained by Surface Plasmon Resonance in a Biacore X100 instrument. The human anti-IgG (Fc) antibody was immobilized to the carboxymethylated dextran membrane on the sensor chip surface (CM5) via the free amine method for a contact time of 420 seconds. Human anti-IgG antibody at 25 µg/mL in 0.15 M NaCl was immobilized to 9,785 RU in 10 mM sodium acetate pH 5.0. Each tested monoclonal antibody was captured at a fixed concentration (0.25 µg/mL) with immobilized human anti-IgG antibody.
The following experimental conditions were used: purified Protein S was injected at concentrations: 2-128 nM, 1:2-fold dilution. Dilution and running buffer were as follows: Hbs-EP + 5 mM CaCl₂. Regeneration was obtained by 3 M MgCl₂. Binding constants (ka, kd, and KD) were determined using the Biacore X100 evaluation software, assuming a 1:1 interaction of Protein S and the tested monoclonal antibody under investigation.

In assay [4] the target is T1, human Protein S. In words: ELISA, plate coated with human Protein S, 1 µg/ml antibody, 1 mM EDTA. As for the experimental part: (§2) Calcium dependence of binding was determined using an ELISA based method. Briefly, high binding ELISA plates were coated with human Protein S. Then, buffer containing 1 µg/ml of antibody was applied to the well with either buffer containing 1 mM EDTA or 1 mM calcium chloride. If the level of binding of Protein S was reduced ([…] of the absorbance observed in the presence of calcium) when EDTA was added, it was concluded that the binding was calcium-dependent.
For orientation: An ELISA detects its analyte on a solid surface through an enzyme-linked reagent.

Assay [5] has as its target T1, human Protein S. In words: ELISA, plate coated with human Protein S, 1 µg/ml antibody, 1 mM calcium chloride. As for the experimental part:
as §2

Assay [6] has as its target T3, recombinant heavy chain Protein S (amino acids 42-296) (human, UniProt P07225 42-296).
T3 construct: Expressed and purified from HEK293 cells; No tags are stated; also called heavy chain of Protein S; Protein S heavy chain
T3 sequence: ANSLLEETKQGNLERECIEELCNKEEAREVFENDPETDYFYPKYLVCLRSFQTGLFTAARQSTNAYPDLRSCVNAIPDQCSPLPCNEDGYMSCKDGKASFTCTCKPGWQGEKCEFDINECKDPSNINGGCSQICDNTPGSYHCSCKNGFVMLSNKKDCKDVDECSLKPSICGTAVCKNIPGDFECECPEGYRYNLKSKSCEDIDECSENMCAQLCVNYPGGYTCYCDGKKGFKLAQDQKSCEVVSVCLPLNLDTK
As to the kind of experiment: ELISA on plate-coated recombinant Protein S heavy chain (aa 42-296), 1 mM calcium chloride. The protocol:
(§3) Binding to the heavy chain of Protein S was determined using an ELISA based method. Briefly, high binding ELISA plates were coated with recombinant heavy chain Protein S expressed and purified from HEK293 cells. The “heavy chain” of Protein S represents a fragment of Protein S spanning amino acids 42-296. The coated plate was blocked with 1% casein solution. Then, buffer containing 1 µg/ml of antibody to be tested was applied to the well with buffer containing 1 mM calcium chloride.

The target in assay [7] is T3, recombinant heavy chain Protein S …. In words: ELISA, plate coated with recombinant Protein S heavy chain (aa 42-296), 1 µg/ml antibody, 1 mM calcium chloride. As for the experimental part: as §3
The target in another assay is T4, Protein S-C4BP complex (human, UniProt P04003 49-597; P20851 18-252).
T4 construct: Bought C4BP preparation that contains Protein S precomplexed to human C4BP; also called ProS-C4BP Complex; C4BP-Protein S complex
T4 sequence 1: T1 sequence
T4 sequence 2: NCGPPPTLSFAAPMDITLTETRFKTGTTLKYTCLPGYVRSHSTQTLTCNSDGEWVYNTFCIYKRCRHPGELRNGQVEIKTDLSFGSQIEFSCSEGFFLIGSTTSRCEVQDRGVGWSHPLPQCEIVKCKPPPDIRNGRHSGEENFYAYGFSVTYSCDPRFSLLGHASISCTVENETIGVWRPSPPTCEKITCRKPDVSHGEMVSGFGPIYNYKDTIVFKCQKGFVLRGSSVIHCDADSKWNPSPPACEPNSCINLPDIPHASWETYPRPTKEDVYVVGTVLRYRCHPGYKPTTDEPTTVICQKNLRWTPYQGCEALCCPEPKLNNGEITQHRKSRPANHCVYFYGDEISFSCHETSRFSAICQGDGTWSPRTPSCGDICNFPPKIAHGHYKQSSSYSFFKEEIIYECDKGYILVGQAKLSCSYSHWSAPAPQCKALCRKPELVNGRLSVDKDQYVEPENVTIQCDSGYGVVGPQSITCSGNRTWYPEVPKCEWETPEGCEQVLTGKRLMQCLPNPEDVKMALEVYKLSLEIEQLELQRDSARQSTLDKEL
T4 sequence 3: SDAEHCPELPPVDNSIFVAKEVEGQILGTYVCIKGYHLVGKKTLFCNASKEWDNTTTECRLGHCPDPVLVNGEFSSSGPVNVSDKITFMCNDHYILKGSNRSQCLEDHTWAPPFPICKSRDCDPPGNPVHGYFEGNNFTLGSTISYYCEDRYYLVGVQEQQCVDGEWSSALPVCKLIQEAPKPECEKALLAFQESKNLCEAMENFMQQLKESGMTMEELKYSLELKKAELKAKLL
As to the kind of experiment: Octet BLI, antibody captured on anti-human Fc probes; a dash indicates that the binding did not occur. As for the experimental part: The Octet assay was used to determine the capability of the Protein S antibodies provided herein to bind to Protein S either alone, or when complexed to C4BP.
Using the Octet System (Sartorius), the binding of each antibody to both Protein S and Protein S in complex with C4BP was determined. It had previously been determined that the C4BP preparation from Complement Technologies contains Protein S precomplexed to human C4BP. […] Then the bound antibodies were placed into solutions containing either 75 µg/ml Protein S or 100 µg/ml C4BP (C4BP-Protein S complex).

Where a chain is given by its changes, count along the chain named.

B1: Antibody 5 (antibody, V domains shown)
VH: QVQLVQSGAEVKKPGASVKVSCKASGYTFTSYDINWVRQATGQGLEWMGWVNPNSDNIGYAQKFQGRVTMTRNTSISTAYMELSSLRSEDSAVYYCVRGAAAAWDAFAIWGQGTMVTVSS
VL: EIVMTQSPATLSVSPGERATLSCRASQSVGSNLAWYQQKPGQAPRLLIYGASTRATGGPARFSGSGSGTEFTLTISSLQSEDFAVYYCQQYNNWPLTFGGGTKVEIK
notes: also called Protein S Antibody with Human Fc; Combination 8
As a reminder, the Kd is the equilibrium constant for the complex coming apart. Broadly, the koff is the first-order rate constant of dissociation. Broadly, the kon is the rate constant with which the complex forms. Take B1: in the assay with human Protein S [1], the Kd turned out to be 7.8 nM, the koff was determined as 0.000493 s⁻¹ and the kon amounted to 63300 M⁻¹ s⁻¹. In assay [2], the Kd is 4.19 nM, the koff amounted to 0.000283 s⁻¹ and the kon was 67500 M⁻¹ s⁻¹. In the assay with human Protein S [3], the Kd was determined as 28 nM, the koff turned out to be 0.00227 s⁻¹ and the kon was determined as 81200 M⁻¹ s⁻¹.

B2: Antibody 17 (antibody, V domains shown)
VH: B1 VH
VL: B1 VL
notes: Human variable region with a rat Fc domain; also called Protein S Antibody with Rat Fc; parental rat antibody of Antibody 5
B2: the “Binding to Protein S in EDTA (OD)” value with human Protein S [4] was determined as 0.39 OD. Also, in the assay with human Protein S [5], the “Binding to Protein S in CaCl2 (OD)” value worked out at 0.54 OD. Besides, the binding result in assay [6] was “no binding”. The “Binding to heavy chain (OD)” value in assay [7] was found to be 0.07 OD.

B3: Antibody 22 (antibody, V domains shown)
VH: EVQLLESGGGLVQPGGSLRLSCAASRFSFSSYAMSWVRQAPGKGLEWVSAISDSGSNTYYADSVKGLFTISRDNSKNTLYLQMNSLRAEDTAVYYCAKNYESGGYYTFFDYWGQGTLVTVST
VL: B1 VL with S14F, G30R, Y36H, P40L, I48L, G58I, T74A, N93S, L96F, E105G
notes: Human variable region with a rat Fc domain; also called Protein S Antibody with Rat Fc; parental rat antibody of Antibody 10
With B3, the “Binding to Protein S in EDTA (OD)” value in the assay with human Protein S [4] was 0.07 OD. For the same molecule, the “Binding to Protein S in CaCl2 (OD)” value with human Protein S [5] stood at 0.2 OD. In addition, the binding result in assay [6] is “no binding”. For the same molecule, in assay [7], the “Binding to heavy chain (OD)” value came out at 0.06 OD.

B4: Antibody 10 (antibody, human IgG4, V domains shown)
VH: B3 VH
VL: B1 VL with S14F, G30R, Y36H, P40L, I48L, G58I, T74A, N93S, L96F, E105G
notes: also called Protein S Antibody with Human Fc; Combination 9
Regarding B4, in the assay with human Protein S [1], the Kd was 16.8 nM, the koff was found to be 0.00213 s⁻¹ and the kon was found to be 127000 M⁻¹ s⁻¹. For the same molecule, in assay [2], the Kd was found to be 12.3 nM, the koff was found to be 0.00132 s⁻¹ and the kon was found to be 107000 M⁻¹ s⁻¹. For the same molecule, the binding result with Protein S-C4BP complex is “no binding (tested: 100 µg/ml C4BP (C4BP-Protein S complex))”. In the assay with human Protein S [3], the Kd stood at 31 nM, the koff came to 0.00514 s⁻¹ and the on-rate constant (kon) stood at 167000 M⁻¹ s⁻¹.

B5: Antibody 26 (antibody, human IgG4, V domains shown)
VH: EVQVVESGGGLVQPGGSLRLSCAASGFTLNSFWMSWVRQAPGKGLEWVANIKEDGSEKYYVDSVKGRFTISRDNAKNSLYLQMNGLRAEDTALYYCARETDILTAYYSDYYSYYGMDVWGQGTTVTVSA
VL: DIQMTQSPSSLSASVRDRVTINCRASQSIRSYLNWYQQKPGKAPKLLIYAASSLQGGVPSRFSGSGSGTDFTLTISSLQPEDFATYYCQQSYSTPRTFGQGTKVEIK
notes: also called Protein S Antibody with Human Fc; Combination 16
B5: in the assay with human Protein S [1], the Kd amounted to 0.466 nM, the koff worked out at 4.58e-05 s⁻¹ and the kon was determined as 98500 M⁻¹ s⁻¹. Further, in assay [2], the Kd is 0.349 nM, the koff was 3.15e-05 s⁻¹ and the kon was found to be 90300 M⁻¹ s⁻¹. Also, the binding result in the assay with Protein S-C4BP complex is on record as “no binding (tested: 100 µg/ml C4BP (C4BP-Protein S complex))”.

B6: Antibody 32 (antibody, V domains shown)
VH: B5 VH
VL: B5 VL
notes: Human variable region with a rat Fc domain; also called Protein S Antibody with Rat Fc; parental rat antibody of Antibody 26
With B6, in the assay with human Protein S [4], the “Binding to Protein S in EDTA (OD)” value was determined as 0.33 OD. Further, the “Binding to Protein S in CaCl2 (OD)” value in the assay with human Protein S [5] was 0.82 OD. Moreover, in assay [6], the binding result was “no binding”. Moreover, the “Binding to heavy chain (OD)” value in assay [7] stood at 0.1 OD.

For the origin of these results see US20230174672A1 (VEGA THERAPEUTICS, published 2023).
